# Test results from US11311625B2, “Peptide-based multiple-drug delivery vehicle” (priority 2015, dated 2022).
# Where two headings read alike, the source gives them in different places.
# Columns and labels:
# [1] = Bio-stability of 9a in murine liver homogenate (LH); type: in vitro ADME, mouse
# Protocol: Preparation of the LH and assay: Mice were sacrificed by CO2 inhalation euthanasia. The livers were removed, minced, washed three times in cold PBS buffer and homogenized in Tris-HCl, pH 7.4 buffer (wt/3 vol.) by dozen strokes in a Potter-Elvehjem glass tissue grinder. The tissue homogenate was centrifuged at 4° C., 14000 rpm, 20 min. The supernatant was carefully collected (LH) and used immediately or else stored in liquid nitrogen. The concentration of protein was measured using the BCA protein assay with bovine serum albumin as a standard.
# Assay incubation procedure: Incubations were conducted in an incubator oven set at 37° C. Each incubation tube contained 2 mL homogenate samples (equivalent to 6 mg total protein of mouse LH). The samples were prepared by adding 50 μL of stock solution to the LH at the beginning of the incubation period. Aliquots (100 μL) of the LH mixture were removed after 10, 30, 60, 90, 120, and 180 min. immediately quenched with 2.5 volumes of ethanol, and centrifuged at 14000 rpm for 15 min. The supernatants were collected, filtered and analyzed by LC-MS.
# In order to get a biologically relevant picture of the release sequence of the different drugs, the bio-stability of 9a in murine liver homogenate (LH) was studied. Examination of the degradation rate of 9a, accompanied by cleavage of free drugs, was carried out following the LC-MS trace at different time intervals using premade authentic samples as reference signals.
# [2] = tested on: human embryonic kidney 293 (HEK293) cells; type: cell-based
# Protocol: (§1) The cytotoxicity of the conjugates was determined by measuring the mitochondrial enzyme activity, using a commercial XTT assay kit. All samples contained DMSO at a final concentration <0.05%. Cells were cultured in micro wells at 2-4×10^4 cells/mL and incubated for 24 h or 72 h at 37° C. After the first incubation period of 24 h the cultures were washed and then given a fresh medium containing different concentrations of the tested substances. At the end of the second incubation, XTT reagent was added and the cells were re-incubated for additional 2-4 h. During that time the absorbencies in the wells were measured with a TECAN Infinite M200 ELISA reader at both 480 and 680 nm. The difference between these measurements was used for calculating the % viability in test wells compared to two controls: cells that were exposed to the medium and solvent, and those which were exposed to a solvent-free medium. All the tests were done in triplicate. Each experiment was conducted twice.
# (§2) The in vitro activity of 9a was determined on human embryonic kidney 293 (HEK293) cells and human prostate cancer TRAMP C2 cell lines in order to compare the cytotoxicity of 9a relative to the three selected free drugs. […] The cytotoxicity of 9a was determined by measuring the mitochondrial enzyme activity of the different cell lines after incubation with the different substances for 24 h and 72 h.
# [3] = tested on: human prostate cancer TRAMP C2 cell lines; type: cell-based
# Protocol: as §1, §2
# [4] = tested on: HEK293 and TRAMP C2 cell lines; type: cell-based, human
# Protocol: as §1, with “The difference between these measurements was used for calculating the % viability in test wells compared to two controls: cells that were exposed to the medium and solvent, and those which were exposed to a solvent-free medium. All the tests were done in triplicate. Each experiment was conducted twice.” left out
# as §2, with “h. The viability factor (% of surviving cells) of the cell cultures was calculated relative to a control sample incubated with the vehicle only, considered as 100% viability. […]” for “h.”
# FIGS. 19A-19D present the results of the viability assay (% surviving cells) of the cell cultures calculated relative to the control, 100% viability. […]
# [5] = tested on: HEK-293 (Human Embryonic Kidney 293) cell line; test: XTT growth inhibition assay, HEK-293 negative control; type: cell-based
# Protocol: The cytotoxicity of the peptide-drug conjugates was determined by measuring the mitochondrial enzyme activity, using a commercial XTT assay kit. All samples contained DMSO at final concentration <0.05%. Cells were cultured in micro wells at 2-4×10^4 cells/ml and incubated for 24 h or 72 h. After the first incubation period the cultures were washed and then given fresh medium containing different concentrations of the tested substances. At the end of the second incubation, XTT reagent was added and the cells were re-incubated for additional 2-4 h. During that time the absorbencies in the wells were measured with a TECAN Infinite M200 plate reader at both 480 and 680 nm. […]
# In order to compare the cytotoxic effects of the conjugates relative to the free drugs, the in vitro cytotoxic effect of the drug bioconjugates 1a-e was determined on SSTR2 overexpressed HCT 116 human colorectal carcinoma, H1299 human non-small cell lung carcinoma and TRAMP C2 human prostate cancer cell lines. […]
# FIGS. 13A-13D present the results of the XTT growth inhibition assay conducted for conjugates 1a-e. […] After the treatment, growth inhibition was measured using the XTT assay: The culture medium was replaced by a new one, and then the XTT reagent was added. The wells were incubated for 2-4 hrs. after which the optical density (OD) was measured at 480 and 680 nm. […]
# [6] = tested on: HCT 116, H1299, TRAMP C2 and HEK cell lines; test: XTT growth inhibition assay, statements over all tested cell lines; type: cell-based, human; details: tested cell lines including HEK
# Protocol: The cytotoxicity of the peptide-drug conjugates was determined by measuring the mitochondrial enzyme activity, using a commercial XTT assay kit. All samples contained DMSO at final concentration <0.05%. Cells were cultured in micro wells at 2-4×10^4 cells/ml and incubated for 24 h or 72 h. After the first incubation period the cultures were washed and then given fresh medium containing different concentrations of the tested substances. At the end of the second incubation, XTT reagent was added and the cells were re-incubated for additional 2-4 h. During that time the absorbencies in the wells were measured with a TECAN Infinite M200 plate reader at both 480 and 680 nm. The difference between these measurements was used for calculating the % Growth Inhibition (GI) in test wells compared to two controls: cells that were exposed to the medium and solvent, and those that were exposed to a solvent-free medium. All the tests were done in quadruplicates. Each experiment was conducted twice.
# In order to compare the cytotoxic effects of the conjugates relative to the free drugs, the in vitro cytotoxic effect of the drug bioconjugates 1a-e was determined on SSTR2 overexpressed HCT 116 human colorectal carcinoma, H1299 human non-small cell lung carcinoma and TRAMP C2 human prostate cancer cell lines. The SSTR2 low-expressed HEK-293 (Human Embryonic Kidney 293) cell line was used as a negative control. The study was elaborated over a concentration range of 1-10 μM.
# FIGS. 13A-13D present the results of the XTT growth inhibition assay conducted for conjugates 1a-e. Growth inhibition effect of drug-conjugates versus free drugs was studied on three cell lines with an over-expression of SSTR2 (FIG. 13A. HCT 116; FIG. 13B. H1299; FIG. 13C. TRAMP C2) against the SSTR2 low expression cell line (FIG. 13D) HEK as negative control. All the cell lines were seeded and allowed to adhere in the wells, after which they were treated with the different compounds in increasing concentrations for 24 and 72 hr. After the treatment, growth inhibition was measured using the XTT assay: The culture medium was replaced by a new one, and then the XTT reagent was added. The wells were incubated for 2-4 hrs. after which the optical density (OD) was measured at 480 and 680 nm. Percentage of growth inhibition for each compound was calculated by comparison of the treated culture versus a control culture (free of any compound). The result shown for each concentration point represents the mean±standard error calculated from two different experiments. In each experiment the compounds were tested in quadruplicates.
# [7] = Chemo-stability and drug release of 9a and CLB in buffers at pH 2, 5 and 7.4 (LC-MS); type: physicochemical; details: for half-life at 0.04 mg/mL: buffer, read-out: degradation t1/2 (converted)
# Protocol: Stock solutions chemo-stability studies were prepared by dissolving 5 mg of the tested compound in 5000 μl of DMSO.
# Incubation procedure: Aqueous stability was determined at pH 2, 5 and 7.4. Aliquots (100 μl) of stock solution were diluted to a total of 2.5 mL with the desired buffer and then incubated at 37° C. During the incubation period (up to 160 h) 250 μL portions were drawn at different time intervals, filtered and analyzed by LC-MS.
# Peptidyl delivery systems loaded with anticancer drugs are expected to reach their site of action with minimal degradation. The PDS should be stable enough to be absorbed by cancer cells and only then deliver its toxic cargo. Chemo-stability and bio-stability studies may give us a background check for the endurance of our compact peptidyl DDS under the different conditions it is expected to encounter in a potential animal test. To that end, samples of 9a were incubated at pH 2, mimicking stomach conditions, at pH 5 mimicking the microenvironment in tumors, and at physiological pH 7.4, all at 37° C. Aliquots from the stock solutions were extracted at different time intervals and analyzed by LC-MS following the decrease in concentration of 9a (i.e., chemical degradation) and the formation of the dihydroxy derivative 11. In addition, the direct release of the different drugs was also followed based on the increase in the concentration of CLB, AZA and CAMP over time. In this analysis samples of 9a, 11, CLB, AZA and CAMP were used as references. Overall, the HPLC trace presents a very complex mixture of metabolites which could not be exhaustively characterized. Scheme 9 below presented the molecular structure 11.
smiles,measurement,setting,value
"COc1cc([C@@H]2c3[nH]c4ccccc4c3C[C@H]3COC(=O)N32)cc(OC)c1O [AZA, Azatoxin, reference compound]",stability of free drug in LH,[1],stable
same,surviving cells,[2],less than 10%
same,surviving cells,[3],less than 10%
same,cytotoxic effect / relative cytotoxic activity,[4],most active drug
"CC[C@@]1(O)C(=O)OCc2c1cc1n(c2=O)Cc2cc3ccccc3nc2-1 [CPT, Camptothecin]",cytotoxic effect,[5],toxic
same,IC50 values,[6],low μM range
"CC[C@@]1(OC(=O)NCCCC[C@H](NC(=O)CCCc2ccc(N(CCCl)CCCl)cc2)C(=O)NCCCC[C@H](NC(=O)Oc2c(OC)cc([C@@H]3c4[nH]c5ccccc5c4C[C@H]4COC(=O)N43)cc2OC)C(=O)O)C(=O)OCc2c1cc1n(c2=O)Cc2cc3ccccc3nc2-1 [9a, Lys(AZA)-Lys(CBL)(CAMP)]",half-life at 0.04 mg/mL,"[7]; pH 2, 37° C.",2 h
same,half-life at 0.04 mg/mL,"[7]; pH 5, 37° C.",1.5 h
same,release of the three drugs,[7]; pH 2,none of the three drugs appeared to be released intact or at all
same,appearance of free AZA,[7]; pH 5,not detected
same,maximum concentration of released CAMP,[7]; pH 5,34 nM
same,period in which released CAMP decays completely,[7]; pH 5,≤ 80 h
same,time at which CLB could be first detected,[7]; pH 5,38 h
same,time to maximum concentration of released CAMP,[7]; pH 5,21 h
same,concentration of released CLB,"[7]; pH 5, after 100 h",≤ 44 nM
same,free CLB,[7]; pH 7.4,not detected
same,maximum concentration plateau of released AZA,[7]; pH 7.4,12 nM
same,time at which AZA concentration starts to rise above base-line,[7]; pH 7.4,20 h
same,time at which CAMP could be detected,[7]; pH 7.4,75 h
same,time to maximum concentration of released CAMP,[7]; pH 7.4,100 h
same,time to maximum concentration plateau of released AZA,[7]; pH 7.4,40 h
same,presence of free AZA,[1],could not be detected
same,time to concentration plateau of released CAMP,[1],30 min
same,time to steady state plateau of released CLB,[1],80 min
same,drug release in LH,[1]; 37° C.,quick release of CLB and CAMP
same,cytotoxic effect / relative cytotoxic activity,"[4]; 0.1-10 μM, both cell lines",comparable level to the tested free drugs
